For eleven molecules, SPR binding (control subtracted) and gMFI results are on record in patent US20240254227A1.

Changes are numbered by the printed parent chain.

First the molecules themselves.
B1: anti-CD300LB antibody CD-10 (antibody, V domains shown)
VH: QVQLQQSGPELVRPGVSVKISCKGSGYTFTDYAMHWVKQSHVRSREWIGVIGTYNGHTNYNQKFKGKATMTVDKSSSTAYLELARLTSEDSAIYYCARSGSYYYSMDYWGQGTSVTVSS
VL: QIVLTQSPAIMSASPGEKVTMTCSASSSVNYMHWYQQKSGTSPKRWIYDTSKLSSGVPARFSGSGSGTSYSLTISTMEAEDAATYYCQQWSSNPPMTFGGGTKLEIK
B2: anti-CD300LB antibody CD-11 (antibody, V domains shown)
VH: QIQLVQSGPEVKKPGETVKISCKASGYTLTDYSMHWVMQTPGTGLKWMAWMNTETGEPTYADDFKGRFAFSLETSAGTAYLQIDNLKNEDTATYFCATYGKSYGMKYWGQGTSVTVSS
VL: DIVLTQSPPSLAVSLGQRATISCRATKSVSPYLHWYQQTPGQPPKLLIYLASNLDSGVPARFSGSGSGTDFTLNIHPVEEEDAATYYCQHNKELPPTFGGGTRLEIK
B3: anti-CD300LB antibody CD-05 (antibody, V domains shown)
VH: QVQLVQSGAEVKKPGASVKVSCKASGYTFSRYYINWVRQAPGQGLEWMGWINPNSGGTNYAQKFQGRVTMTRDTSTSTVYMELSSLRSEDTAVYYCTTDQLRFGKTGPYYGMDVWGQGTTVTVSS
VL: DIQMTQSPSSLSASVGDRVTITCRASQNIGTYLNWYQQKPGKAPKLLIYAASSLQSGVPSRFSGSGSGTDFTLTISSLQPEDFATYYCQQSYSDTLTFGGGTKVEIK
B4: anti-CD300LB antibody CD-15 (antibody, V domains shown)
VH: QIQLVQSGPELKKPGETVKISCQVSGYTFTDYSMHWLKQAPGKGLKWMAWINTETGESTYTDEFKGRFVFSLETSVRTAYLKINNLKNEDTATYFCGTYGSSYGMAYWGQGTSVTVSS
VL: DIVLTQSPASLPVSLGQRATISCRASKSVSTSGSSYLHWYQQKPGQPPKLLIYLASKLESGVPARFRGSGSGTDFTLNIHPVEEEDAATYYCQHNREVPPTFGGGTKLEIK
B5: anti-CD300LB antibody CD-16 (antibody, V domains shown)
VH: QIQLVQSGPELKKPGETVKISCKASGYTFTDYSMHWVKQAPGKGLKWMAWINTETGEPTYADDFRGRFAFSLETSGRTAYLEINNLRNEDTATYFCVTYGSSYGMAYWGQGTSVTVSS
VL: B4 VL with P12A, T31R, S34Y, R67S, E84A, V98I
B6: anti-CD300LB antibody CD-04 (antibody, V domains shown)
VH: QVQLQQSGAELVRPGASVTLSCRASGYTFTDFEMHWVKQTPLHGLEWIGAIAPETGGTAYNQKFKGKAILTADKSSSTAYVELRSLTSEDSAVYFCTRLGGMDYWGQGTSVTVSS
VL: DVVMTQTPLSLPVSLGDQASISCRSSQTLVHNNGNTYLYWYLQKPGQSPKLLIYQVSNRFFGVPDRFSGSGSGTDFTLKISRVEAEDLGLYFCSQSTHVPWTFGGGTKLEIK
B7: anti-CD300LB antibody CD-08 (antibody, V domains shown)
VH: EVQLLESGGGLVQPGGSLRLSCAASGFTFSNAWMSWVRQAPGKGLEWVSVISGSGGRTYYADSVKGRFTISRDNSKNTLYLQMNSLRAEDTAVYYCARDGTTVAPKGMDVWGQGTTVTVSS
VL: DIQMTQSPSSLSASVGDRVTITCQASQDINNYVNWYQQKPGKAPKLLIYAASNLQSGVPSRFSGSGSGTDFTLTISSLQPEDFATYYCQQSYSPPYTFGQGTKLEIK
B8: anti-CD300LB antibody CD-09 (antibody, V domains shown)
VH: QVQLVQSGAEVKKPGASVKVSCKASGYTFTTYAVHWVRQAPGQGLEWMGIINPNSGGTNYAQKFQGRVTMTRDTSTSTVYMELSSLRSEDTAVYYCARDIVPMNNFYNYYYGMDVWGQGTTVTVSS
VL: B7 VL with Q24R, D28S, N30S, N31S, V33L, A51T, N53T, S93R, P94I, L104V
B9: anti-CD300LB antibody CD-07 (antibody, V domains shown)
VH: QVQLVQSGAEVKKPGASVKVSCKASGYTFTNYRMHWVRQAPGQGLEWMGWINPNSGGTIYAQKFQGRVTMTRDTSTSTVYMELSSLRSEDTAVYYCARDLDYWGQGTLVTVSS
VL: B7 VL with N30S, V33L, A50G, N53S, P94T, Y96W, Q100P, L104V
B10: anti-CD300LB antibody CD-06 (antibody, V domains shown)
VH: B8 VH with I51V
VL: B7 VL with Q24R, D28S, N30S, N31S, V33L, A51T, N53T, S93R, P94I, L104V
B11: anti-CD300LB antibody CD-01 (antibody, V domains shown)
VH: RVQLQQSGAELVRPGASVTLSCKASGFTFTDFEMHWVKKTPVHGLEWIGAIDPESGNTAYNQKFRGKATLTADKSSSTAYMELRYLTSEDSAVYYCTPLISGADYWGQGTTLTVSS
VL: B6 VL with T7S, T28S, N32S, N33D, Q55K, F61S, L78F, E84G, L90V, K112I

In the first assay the target is murine CD300C-Fc (mouse). The assay can be described thus: SPR (Carterra LSA), antibody immobilised, Fc fusion at 300 or 600 nM.
Chain of murine CD300C-Fc (mouse) (chain, as listed by the source limits assumed): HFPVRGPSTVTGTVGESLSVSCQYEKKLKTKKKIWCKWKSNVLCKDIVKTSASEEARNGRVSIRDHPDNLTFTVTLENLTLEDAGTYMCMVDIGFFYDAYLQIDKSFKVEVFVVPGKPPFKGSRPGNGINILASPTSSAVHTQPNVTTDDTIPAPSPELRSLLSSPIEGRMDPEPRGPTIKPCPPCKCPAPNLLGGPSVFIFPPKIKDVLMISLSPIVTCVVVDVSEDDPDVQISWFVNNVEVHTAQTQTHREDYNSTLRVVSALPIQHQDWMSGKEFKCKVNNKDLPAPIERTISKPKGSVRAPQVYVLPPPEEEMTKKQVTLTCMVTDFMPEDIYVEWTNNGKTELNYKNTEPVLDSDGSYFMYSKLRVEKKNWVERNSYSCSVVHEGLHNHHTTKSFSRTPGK
The molecule B1 returned an SPR binding (control subtracted) of 11.8.

B2 had an SPR binding (control subtracted) of 37.8.

The target in another assay is murine CD300LB-Fc (mouse). The description is as above.
Chain of murine CD300LB-Fc (mouse) (chain, as listed by the source limits assumed): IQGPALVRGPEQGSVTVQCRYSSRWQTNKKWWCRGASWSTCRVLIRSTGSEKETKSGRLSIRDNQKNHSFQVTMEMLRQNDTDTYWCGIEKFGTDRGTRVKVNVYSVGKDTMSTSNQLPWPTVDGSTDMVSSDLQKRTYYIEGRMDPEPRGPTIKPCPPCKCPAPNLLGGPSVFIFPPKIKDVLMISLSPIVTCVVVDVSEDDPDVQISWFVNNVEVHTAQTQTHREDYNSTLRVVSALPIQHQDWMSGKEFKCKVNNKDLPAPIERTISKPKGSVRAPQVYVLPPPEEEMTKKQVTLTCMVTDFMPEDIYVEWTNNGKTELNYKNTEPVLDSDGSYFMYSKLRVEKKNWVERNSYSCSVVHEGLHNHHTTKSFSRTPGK
In the case of B3, the SPR binding (control subtracted) was 3.65.

In another assay the target is recombinant human CD300LB overexpressed on Jurkat cells (human) (UniProt A8K4G0). The assay can be described thus: flow cytometry, stable Jurkat cells, supernatant or 10 ug/mL, isotype subtracted. For orientation: In flow cytometry, cells or beads pass a laser one at a time.
Chain of recombinant human CD300LB overexpressed on Jurkat cells (human) (A8K4G0 18-201 limits assumed): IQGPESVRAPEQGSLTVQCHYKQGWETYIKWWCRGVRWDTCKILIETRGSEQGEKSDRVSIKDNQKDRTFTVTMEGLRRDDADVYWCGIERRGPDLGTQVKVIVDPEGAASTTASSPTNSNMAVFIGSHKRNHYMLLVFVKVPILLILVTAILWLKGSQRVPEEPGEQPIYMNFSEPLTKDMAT
As to B4, the gMFI came to 22 gMFI. Same read-out and setting: as for B5, the figure is 31 gMFI.

Another assay deals with huCD300F constitutively expressed on 293 Freestyle (Freestyle HEK) cells (human) (UniProt Q8TDQ1). The assay can be described thus: flow cytometry, stable Freestyle HEK cells.
Chain of huCD300F constitutively expressed on 293 Freestyle (Freestyle HEK) cells (human) (Q8TDQ1 other isoform, or with tags, fused parts or gaps): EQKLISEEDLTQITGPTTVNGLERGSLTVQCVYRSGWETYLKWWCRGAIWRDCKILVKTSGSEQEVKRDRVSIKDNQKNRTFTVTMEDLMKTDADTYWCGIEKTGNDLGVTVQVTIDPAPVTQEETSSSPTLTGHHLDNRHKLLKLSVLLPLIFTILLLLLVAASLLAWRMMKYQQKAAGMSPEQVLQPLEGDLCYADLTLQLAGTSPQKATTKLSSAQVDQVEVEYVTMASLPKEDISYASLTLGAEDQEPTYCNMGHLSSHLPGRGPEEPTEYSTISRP
In turn, B6 displayed a gMFI of 163 gMFI.

For another assay, the target named is cynomolgus monkey CD300LB transiently expressed on HEK293 cells (cynomolgus monkey). The assay can be described thus: flow cytometry, transfected HEK293, 10 ug/mL, isotype subtracted.
Chain of cynomolgus monkey CD300LB transiently expressed on HEK293 cells (cynomolgus monkey) (chain, as listed by the source limits assumed, form in doubt): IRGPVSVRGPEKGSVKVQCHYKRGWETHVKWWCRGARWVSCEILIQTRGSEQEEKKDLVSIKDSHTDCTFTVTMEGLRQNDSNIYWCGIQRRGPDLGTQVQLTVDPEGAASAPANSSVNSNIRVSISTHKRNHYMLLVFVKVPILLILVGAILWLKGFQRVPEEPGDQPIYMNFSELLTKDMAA
The molecule B7 registered a gMFI of -43.5 gMFI.

On to B3, for which the gMFI was -62.5 gMFI. As to B8, the gMFI was -19.5 gMFI. Consider B9, for which the gMFI stood at 39 gMFI.

The molecule B10 came in with a gMFI of -51 gMFI. Still for that read-out and setting: as for B11, the figure is 190 gMFI; as for B6, 72.2 gMFI.

The target of another assay is CD300A/C/D/E/G (pool of five stable Freestyle HEK cell lines expressing huCD300A, huCD300C, huCD300D, huCD300E and huCD300G). Put plainly: flow cytometry, pooled stable Freestyle HEK cells.
Molecule B7 yielded a gMFI of 166 gMFI.

Turning to B3, the gMFI turned out to be 2510 gMFI.

Molecule B8 had a gMFI of -25.5 gMFI. Same read-out and setting: as for B9, the figure is 42.5 gMFI; as for B10, 779 gMFI. B11 had a gMFI of -21.5 gMFI. On the same count and under the same terms, as for B6, the figure is 52.5 gMFI.
